Numbering of substitutions follows the chain as printed. Names and notes keep the numbering of the source.
What was measured:
[1] = substrate: C=C(OP(=O)(O)O)C(=O)O; test: EPSPS substrate saturation kinetics, rice H6; assay type: biochemical, Oryza sativa; conditions: other: PEP varied; pH 7.0
Protocol: (§1) EPSPS activity was determined by quantifying the phosphate generated from the EPSPS reaction. Release of inorganic phosphate was coupled to reaction with 2-amino-6-mercapto-7-methylpurine ribonucleoside, catalyzed by purine-nucleoside phosphorylase (M R Webb, Proc. Natl. Acad. Sci. 89:4884-4887, 1992). The absorbance change that occurs was monitored at 360 nm, where the extinction is 11,200 M^−1 cm^−1, with a Spectramax plate reader (Molecular Devices). To determine kinetic parameters, the varied substrate was present at seven concentrations (the eighth being the blank, containing no substrate) ranging from 4 to 400 uM and the unvaried substrate present at saturation. […] Reactions were monitored with a Spectramax plate reader. […] KI was then calculated from the following form of the Michaelis-Menten equation for competitive inhibition: KI=KM[I]/(KM app−KM) KM approximates the dissociation constant of the enzyme-substrate complex while kcat is the rate of conversion of substrate to product when the substrate concentration is saturating. kcat/KM is a widely accepted parameter for catalytic efficiency when substrate concentration is low (˜KM). […] The parameter kcat/KM×KI is used to quantify both catalytic efficiency and insensitivity and thus the overall fitness of the enzyme.
(§2) Native EPSPS amino acid sequences of rice (Oryza sativa) (SEQ ID NO:7), sorghum (Sorghum halepense) (SEQ ID NO:8), and sunflower (Helianthus annus) (SEQ ID NO:9) including the chloroplast transit peptide sequences were assembled and analyzed for mapping the corresponding amino acid mutations from the maize 868-H6. […]
(§3) ChloroP Prediction Server (Emanuelsson, O. et al. 1999. Protein Sci. 8(5):978-84) was used to approximate the amino terminus of the mature EPSPS proteins. […] The synthetic genes were cloned into a plasmid vector and expressed, purified and analyzed as described in Example 1.

[2] = substrate: C=C(OP(=O)(O)O)C(=O)O; test: Substrate saturation kinetic analysis with glyphosate, Zm-T103A; assay type: biochemical, Zea mays; conditions: other: substrate saturation
[3] = substrate: C=C(OP(=O)(O)O)C(=O)O; test: Substrate saturation kinetic analysis with glyphosate, Zm-T103I; assay type: biochemical, Zea mays; conditions: other: substrate saturation
[4] = substrate: C=C(OP(=O)(O)O)C(=O)O; test: Substrate saturation kinetic analysis with glyphosate, Zm-A189T; assay type: biochemical, Zea mays; conditions: other: substrate saturation
[5] = substrate: C=C(OP(=O)(O)O)C(=O)O; test: Substrate saturation kinetic analysis with glyphosate, Zm-P107S; assay type: biochemical, Zea mays; conditions: other: substrate saturation
[6] = substrate: C=C(OP(=O)(O)O)C(=O)O; test: EPSPS substrate saturation kinetics, sunflower H6; assay type: biochemical; conditions: other: PEP varied; pH 7.0
Protocol: as §1, §2, §3

[7] = substrate: C=C(OP(=O)(O)O)C(=O)O; test: EPSPS substrate saturation kinetics, sorghum H6; assay type: biochemical, Sorghum halepense; conditions: other: PEP varied; pH 7.0
Protocol: as §1, §2, §3

[8] = substrate: C=C(OP(=O)(O)O)C(=O)O; test: Substrate saturation kinetic analysis with glyphosate, H6-H54E; assay type: biochemical, Zea mays; conditions: other: substrate saturation
[9] = substrate: C=C(OP(=O)(O)O)C(=O)O; test: Substrate saturation kinetic analysis with glyphosate, H6-A36G; assay type: biochemical, Zea mays; conditions: other: substrate saturation
[10] = substrate: C=C(OP(=O)(O)O)C(=O)O; test: Substrate saturation analysis with glyphosate (Example 8), Zm-H6; assay type: biochemical, Zea mays; conditions: other: substrate saturation, pH 7.0
Description: Generally, (kcat/KM)*KI is obtained by performing substrate saturation analysis in the absence and presence of inhibitor. However, that analysis takes longer. […] To validate the method, (kcat/KM)*KI was quantified using both methods—traditional (saturation) and the instant method (rapid), for variants of maize 5-enolpyruvylshikimate-3-phosphate synthase (EPSPS) and its competitive inhibitor, glyphosate.
The amino acid sequence of mature Zea mays EPSPS was obtained from GenBank entry CAA44974.1 (SEQ ID NO:2). A nucleotide sequence was created to add an N-terminal methionine and to optimize codon usage for expression in E. coli. The synthesized gene was cloned into an expression vector that provides a T7 promoter driving expression of the protein and a 10× N-terminal histidine tag. Variants selected for this study include native maize EPSPS and variants generated by a gene shuffling cascade described herein. […] Protein concentration was determined by absorbance at 280 nm using an extinction coefficient of 0.676 OD/mg/m L. The proteins were normalized to 0.5 mg/mL for assay.
EPSPS activity was determined by quantifying the phosphate generated by the reaction. […] The absorbance change that occurs was monitored continuously at 360 nm, where the extinction is 11,200 M-1 cm-1, with a Spectramax plate reader (Molecular Devices). […]

[11] = substrate: C=C(OP(=O)(O)O)C(=O)O; test: Substrate saturation kinetic analysis with glyphosate, H6-V87T; assay type: biochemical, Zea mays; conditions: other: substrate saturation

B1: Oryza sativa EPSPS with 868-H6 mutations, SEQ ID NO:11 (Oryza sativa; A482G/A67R/A69W/D368S/D468G/E457G/G168A/I274L/K149R/L164C/T345A/T427S/T507Q/V137Q/V504R) (protein)
chain: APARKWEEIVLQPIREISGAVQLPGSKSLSNRILLLSALSEGTTVVDNLLNSEDVHYMLEALKALGLSVEADKQAKRAVVVGCGGRFPVEKDAKEEVQLFCGNAATAMRPLTAAVTAAGGNATYVLDGVPRMRERPIGDLVVGLKQLGADVDCFLGTECPPVRVKGIGGLPGGKVKLSGSISSQYLSALLMAAPLALGDVEIEIIDKLISLPYVEMTLRLMERFGVKAEHSDSWDRFYIKGGQKYKSPGNAYVEGDASSASYFLAGAAITGGTVTVQGCGTASLQGDVKFAEVLEMMGAKVTWTSTSVTVTGPPREPYGKKHLKAVDVNMNKMPDVAMTLAVVALFADGPTAIRDVASWRVKESERMVAIRTELTKLGASVEEGPDYCIITPPGKLNITAIDTYGDHRMAMAFSLAACGDVPVTIRDPGCTRKTFPNYFDRLSQFVRN
Km [1]: 28.9 µM
kcat [1]: 4.88 s⁻¹
kcat/Km [1]: 167000 M⁻¹ s⁻¹

B2: Zea mays EPSPS variant Zm-T103A (Zea mays; T102A) (protein)
chain: MAGAEEIVLQPIKEISGTVKLPGSKSLSNRILLLAALSEGTTVVDNLLNSEDVHYMLGALRTLGLSVEADKAAKRAVVVGCGGKFPVEDAKEEVQLFLGNAGAAMRPLTAAVTAAGGNATYVLDGVPRMRERPIGDLVVGLKQLGADVDCFLGTDCPPVRVNGIGGLPGGKVKLSGSISSQYLSALLMAAPLALGDVEIEIIDKLISIPYVEMTLRLMERFGVKAEHSDSWDRFYIKGGQKYKSPKNAYVEGDASSASYFLAGAAITGGTVTVEGCGTTSLQGDVKFAEVLEMMGAKVTWTETSVTVTGPPREPFGRKHLKAIDVNMNKMPDVAMTLAVVALFADGPTAIRDVASWRVKETERMVAIRTELTKLGASVEEGPDYCIITPPEKLNVTAIDTYDDHRMAMAFSLAACAEVPVTIRDPGCTRKTFPDYFDVLSTFVKN
notes: native maize plus T103A; E. coli BL21(DE3), Ni-NTA purified
Km [2]: 292 µM
kcat [2]: 451 min⁻¹

B3: Zea mays EPSPS variant Zm-T103I (Zea mays; T102I) (protein)
chain: B2 chain with A103I
notes: native maize plus T103I; E. coli BL21(DE3), Ni-NTA purified
Km [3]: 171 µM
kcat [3]: 320 min⁻¹

B4: Zea mays EPSPS variant Zm-A189T (Zea mays; A188T) (protein)
chain: B2 chain with A103T, A189T
Km [4]: 307 µM
kcat [4]: 258 min⁻¹

B5: Zea mays EPSPS variant Zm-P107S (Zea mays; P106S) (protein)
chain: B2 chain with A103T, P107S
notes: native maize plus P107S; E. coli BL21(DE3), Ni-NTA purified
Km [5]: 14.8 µM
kcat [5]: 1798 min⁻¹

B6: Helianthus annuus EPSPS with 868-H6 mutations, SEQ ID NO:10 (Helianthus annuus; … (protein)
chain: ATTRKWSTAPEEIVLKPIKEISGTVNLPGSKSLSNRILLLAALAEGTTVVDNLLNSDDVHYMLGALRALGLNVEENGQIKRATVEGCGGRFPVGKEAKDEIQLFCGNAATAMRPLTAAVTAAGGNSSYILDGVPRMRERPIGDLVTGLKQLGADVDCFLGTNCPPVRVAANGGLPGGKVKLSGSISSQYLTALLMAAPLALGDVEIEIIDKLISLPYVEMTLKLMERFGVSVEHSDSWDKFYVRGGQKYKSPGNAYVEGDASSASYFLAGAAITGGTVTVEGCGTASLQGDVKFAEVLGQMGAEVTWTSNSVTVRGPPRNASGRGHLRPVDVNMNKMPDVAMTLAVVALYADGPTAIRDVASWRVKESERMIAICTELRKLGATVEEGPDYCVITPPGKLNVTAIDTYGDHRMAMAFSLAACGDVPVTIKDPGCTRKTFPDYFERLEQFTKH
Km [6]: 37.2 µM
kcat [6]: 3.52 s⁻¹
kcat/Km [6]: 100000 M⁻¹ s⁻¹

B7: Sorghum halepense EPSPS with 868-H6 mutations, SEQ ID NO:12 (Sorghum halepense; … (protein)
chain: ARGWEEIVLQPIKEISGTVKLPGSKSLSNRILLLAALSEGTTVVDNLLNSEDVHYMLGALNTLGLSVEADKQAKRAVVVGCGGRFPVEDAKEEVQLFCGNAATAMRPLTAAVTAAGGNATYVLDGVPRMRERPIGDLVVGLKQLGADVDCFLGTDCPPVRINGIGGLPGGKVKLSGSISSQYLSALLMAAPLALGDVEIEIIDKLISLPYVEMTLRLMERFGVKAEHSDSWDRFYIKGGQKYKSPKNAYVEGDASSASYFLAGAAITGGTVTVEGCGTASLQGDVKFAEVLEMMGAKVTWTSTSVTVTGPPRQPFGRKHLKAIDVNMNKMPDVAMTLAVVALFADGPTAIRDVASWRVKESERMVAIRTELTKLGASVEEGPDYCIITPPGKLNVTAIDTYGDHRMAMAFSLAACGEVPVTIRDPGCTRKTFPDYFDRLSQFVKN
Km [7]: 30.6 µM
kcat [7]: 5.28 s⁻¹
kcat/Km [7]: 167000 M⁻¹ s⁻¹

B8: Zea mays EPSPS variant Zm-H6 (868-H6) with H54E (H6-H54E) (Zea mays; A1R/A3W/A415G/A71Q/D401G/E301S/E390G/G101A/H53E/I207L/K83R/L97C/T278A/T360S/T440Q/V437R) (protein)
chain: B7 chain with A1M, H54E, N61R, I161V, Q313E
notes: 868-H6 plus H54E; E. coli BL21(DE3), Ni-NTA purified
Km [8]: 27.9 µM
kcat [8]: 248 min⁻¹

B9: Zea mays EPSPS variant Zm-H6 (868-H6) with A36G (H6-A36G) (Zea mays; A1R/A35G/A3W/A415G/A71Q/D401G/E301S/E390G/G101A/I207L/K83R/L97C/T278A/T360S/T440Q/V437R) (protein)
chain: B7 chain with A1M, A36G, N61R, I161V, Q313E
Km [9]: 30.8 µM
kcat [9]: 246 min⁻¹

B10: Zea mays EPSPS variant Zm-H6 (868-H6) (Zea mays; A1R/A3W/A415G/A71Q/D401G/E301S/E390G/G101A/I207L/K83R/L97C/T278A/T360S/T440Q/V437R) (protein)
chain: B7 chain with A1M, N61R, I161V, Q313E
Km [10]: 20.6 µM
kcat [10]: 198 min⁻¹

B11: Zea mays EPSPS variant Zm-H6 (868-H6) with V87T (H6-V87T) (Zea mays; A1R/A3W/A415G/A71Q/D401G/E301S/E390G/G101A/I207L/K83R/L97C/T278A/T360S/T440Q/V437R/V86T) (protein)
chain: B7 chain with A1M, N61R, V87T, I161V, Q313E
notes: 868-H6 plus V87T; E. coli BL21(DE3), Ni-NTA purified
Km [11]: 27.5 µM
kcat [11]: 259 min⁻¹

Reference: US11549123B2, “Plant EPSP synthases and methods of use” (PIONEER HI-BRED INTERNATIONAL, INC., priority 2015, dated 2023)
